Molecular target: T1, Full-length TFPI (recombinant human tissue factor pathway inhibitor, American Diagnostica, E. coli expressed) (human, UniProt P10646 29-304)
T1 construct: also called recombinant TFPI; human TFPI
T1 sequence: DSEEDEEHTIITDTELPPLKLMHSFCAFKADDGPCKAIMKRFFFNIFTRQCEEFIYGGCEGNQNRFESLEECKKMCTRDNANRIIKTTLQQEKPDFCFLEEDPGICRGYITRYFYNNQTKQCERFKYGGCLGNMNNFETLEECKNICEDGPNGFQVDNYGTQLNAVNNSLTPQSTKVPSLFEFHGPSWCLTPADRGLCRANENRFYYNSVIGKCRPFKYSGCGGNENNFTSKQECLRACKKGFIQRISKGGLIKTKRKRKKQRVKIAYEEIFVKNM
Assay: dot-blot (nitrocellulose filtration) binding competition: 10 nM TFPI, trace radiolabeled aptamer ARC17480 as the displaced ligand, FXa varied 2000-0.10 nM
Method: For these experiments, human TFPI at a final concentration of 10 nM (American Diagnostica, Stamford, Conn., catalog #4900PC) was incubated with trace amounts of radiolabeled ARC17480 and different concentrations of human FXa (Haematologic Technologies, Essex Junction, Vt. catalog #HCXA-0060) or ARC19499 (2000 nM-0.10 nM). A control was also carried out in the absence of TFPI in which trace amounts of radiolabeled ARC17480 was incubated with different concentrations of FXa (2000 nM-0.10 nM). The percentage of radiolabeled ARC17480 bound was plotted as a function of competitor concentration and fit to the equation y=(max/(1+x/IC₅₀))+int, where y=the percentage of radiolabeled ARC17480 bound, x=the concentration of competitor, max=the maximum radiolabeled ARC17480 bound, and int=the y-intercept, to generate an IC₅₀ value for binding-competition. […] FXa partially competes with ARC17480 for binding to TFPI, as evidenced by a plateau in the competition-binding curve at concentrations above ˜75 nM. In contrast, ARC19499 completely competes with radiolabeled ARC17480 for binding to TFPI.

B1: human FXa (Haematologic Technologies, catalog #HCXA-0060) (enzyme)
chain 1: ANSFLEEMKKGHLERECMEETCSYEEAREVFEDSDKTNEFWNKYKDGDQCETSPCQNQGKCKDGLGEYTCTCLEGFEGKNCELFTRKLCSLDNGDCDQFCHEEQNSVVCSCARGYTLADNGKACIPTGPYPCGKQTLER
chain 2: IVGGQECKDGECPWQALLINEENEGFCGGTILSEFYILTAAHCLYQAKRFKVRVGDRNTEQEEGGEAVHEVEVVIKHNRFTKETYDFDIAVLRLKTPITFRMNVAPACLPERDWAESTLMTQKTGIVSGFGRTHEKGRQSTRLKMLEVPYVDRNSCKLSSSFIITQNMFCAGYDTKQEDACQGDSGGPHVTRFKDTYFVTGIVSWGEGCARKGKYGIYTKVTAFLKWIDRSMKTRGLPKAKSHAPEVITSSPLK
notes: FXa is a two-chain protease; also called Factor Xa
  IC50 (read off the curve): ~7 nM
